# Data: PMC9482650, “Quantitative fragmentomics allow affinity mapping of interactomes” (Nature Communications, 2022)
# B1: FLVCR1, Q9Y5Y0 (peptide)
# chain: MLSKQSESAI
# B2: GHRHR, Q02643 (peptide)
# chain: SAAKVLTSMC
# B3: EFNB1, P52799 (peptide)
# chain: QSPANIYYKV
# Target: MAGI3_2, Q5TCQ9
# Assay: holdup assay
# Design: key: below the threshold = too weak to quantify, mostly under pKd 3.1 to 4
# Conditions: plain residues with an end cap or a label only (N-terminal biotin on a linker: ado-ado)
# MAGI3_2, Q5TCQ9, sequence (Q5TCQ9 398-503): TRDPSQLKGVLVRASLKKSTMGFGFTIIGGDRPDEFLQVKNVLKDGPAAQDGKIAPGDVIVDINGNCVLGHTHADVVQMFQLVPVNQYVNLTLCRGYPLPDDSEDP
row,Binder,pKd
1,B1,4.45
2,B2,below the threshold
3,B3,below the threshold

# Target: GRID2IP_1, A4D2P6
# Assay: holdup assay
# Design: key: below the threshold = too weak to quantify, mostly under pKd 3.1 to 4
# Conditions: plain residues with an end cap or a label only (N-terminal biotin on a linker: ado-ado)
# GRID2IP_1, A4D2P6, sequence (A4D2P6 1-87): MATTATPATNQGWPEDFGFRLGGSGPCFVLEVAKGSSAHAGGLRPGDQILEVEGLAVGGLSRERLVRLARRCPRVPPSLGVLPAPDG
row,Binder,pKd
1,B1,below the threshold
2,B2,below the threshold
3,B3,below the threshold

# Target: T1, DLG3_3, Q92796
# T1 sequence (Q92796 374-475, limits assumed, looked up): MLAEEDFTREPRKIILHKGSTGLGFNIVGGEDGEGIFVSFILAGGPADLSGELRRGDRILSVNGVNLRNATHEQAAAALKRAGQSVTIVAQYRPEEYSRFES
# Assay: holdup assay
# Design: key: below the threshold = too weak to quantify, mostly under pKd 3.1 to 4
# Conditions: plain residues with an end cap or a label only (N-terminal biotin on a linker: ado-ado)
row,Binder,pKd
1,B1,below the threshold
2,B2,below the threshold
3,B3,below the threshold

# Target: NHERF4_2, Q86UT5
# Assay: holdup assay
# Design: key: below the threshold = too weak to quantify, mostly under pKd 3.1 to 4
# Conditions: plain residues with an end cap or a label only (N-terminal biotin on a linker: ado-ado)
# NHERF4_2, Q86UT5, sequence (Q86UT5 220-308): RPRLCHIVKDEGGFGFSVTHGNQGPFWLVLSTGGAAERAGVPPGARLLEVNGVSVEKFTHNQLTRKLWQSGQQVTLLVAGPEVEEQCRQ
row,Binder,pKd
1,B1,below the threshold
2,B2,below the threshold
3,B3,below the threshold

# Target: T2, RAPGEF6, Q8TEU7
# T2 sequence (Q8TEU7 525-625, limits assumed, looked up): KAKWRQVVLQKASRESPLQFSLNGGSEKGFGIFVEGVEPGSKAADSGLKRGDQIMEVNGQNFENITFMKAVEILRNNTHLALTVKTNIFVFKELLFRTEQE
# Assay: holdup assay
# Design: key: below the threshold = too weak to quantify, mostly under pKd 3.1 to 4
# Conditions: plain residues with an end cap or a label only (N-terminal biotin on a linker: ado-ado)
row,Binder,pKd
1,B1,below the threshold
2,B2,below the threshold
3,B3,below the threshold

# Target: T3, ARHGAP21, Q5T5U3
# T3 sequence (Q5T5U3 45-169, limits assumed, looked up): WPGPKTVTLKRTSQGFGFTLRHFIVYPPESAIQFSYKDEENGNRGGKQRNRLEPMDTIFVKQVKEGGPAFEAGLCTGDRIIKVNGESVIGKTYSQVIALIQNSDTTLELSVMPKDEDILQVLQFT
# Assay: holdup assay
# Design: key: below the threshold = too weak to quantify, mostly under pKd 3.1 to 4
# Conditions: plain residues with an end cap or a label only (N-terminal biotin on a linker: ado-ado)
row,Binder,pKd
1,B1,4.1
2,B2,below the threshold
3,B3,below the threshold

# Target: T4, LIN7C, Q9NUP9
# T4 sequence (Q9NUP9 88-185, limits assumed, looked up): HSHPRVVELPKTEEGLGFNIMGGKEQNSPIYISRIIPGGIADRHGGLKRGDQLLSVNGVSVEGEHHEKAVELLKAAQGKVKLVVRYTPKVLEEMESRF
# Assay: holdup assay
# Design: key: below the threshold = too weak to quantify, mostly under pKd 3.1 to 4
# Conditions: plain residues with an end cap or a label only (N-terminal biotin on a linker: ado-ado)
row,Binder,pKd
1,B1,below the threshold
2,B2,below the threshold
3,B3,below the threshold

# Target: Inadl_4, Q8NI35
# Assay: holdup assay
# Design: key: below the threshold = too weak to quantify, mostly under pKd 3.1 to 4
# Conditions: plain residues with an end cap or a label only (N-terminal biotin on a linker: ado-ado)
# Inadl_4, Q8NI35, sequence (Q8NI35 547-651): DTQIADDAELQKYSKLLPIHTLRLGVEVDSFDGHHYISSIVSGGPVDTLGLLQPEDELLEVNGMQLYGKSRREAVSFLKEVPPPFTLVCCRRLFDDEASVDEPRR
row,Binder,pKd
1,B1,below the threshold
2,B2,below the threshold
3,B3,below the threshold

# Target: LDB3, O75112
# Assay: holdup assay
# Design: key: below the threshold = too weak to quantify, mostly under pKd 3.1 to 4
# Conditions: plain residues with an end cap or a label only (N-terminal biotin on a linker: ado-ado)
# LDB3, O75112, sequence (O75112 1-94): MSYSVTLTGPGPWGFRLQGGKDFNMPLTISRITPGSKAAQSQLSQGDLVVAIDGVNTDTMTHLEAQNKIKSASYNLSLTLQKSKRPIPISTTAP
row,Binder,pKd
1,B1,below the threshold
2,B2,below the threshold
3,B3,below the threshold

# Target: T5, LNX2_3, Q8N448
# T5 sequence (Q8N448 463-564, limits assumed, looked up): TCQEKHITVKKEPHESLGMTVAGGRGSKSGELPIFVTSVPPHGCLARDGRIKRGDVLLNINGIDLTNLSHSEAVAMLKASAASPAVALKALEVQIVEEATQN
# Assay: holdup assay
# Design: key: below the threshold = too weak to quantify, mostly under pKd 3.1 to 4
# Conditions: plain residues with an end cap or a label only (N-terminal biotin on a linker: ado-ado)
row,Binder,pKd
1,B1,below the threshold
2,B2,below the threshold
3,B3,below the threshold

# Target: NHERF4_1, Q86UT5-2
# Assay: holdup assay
# Design: key: below the threshold = too weak to quantify, mostly under pKd 3.1 to 4
# Conditions: plain residues with an end cap or a label only (N-terminal biotin on a linker: ado-ado)
# NHERF4_1, Q86UT5-2, sequence (Q86UT5 other isoform, or with tags, fused parts or gaps): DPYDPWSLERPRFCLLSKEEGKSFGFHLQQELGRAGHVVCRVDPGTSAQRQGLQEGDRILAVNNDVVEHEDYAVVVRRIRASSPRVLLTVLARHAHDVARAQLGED
row,Binder,pKd
1,B1,3.6
2,B2,4.35
3,B3,below the threshold

# Target: T6, FRMPD1, Q5SYB0
# T6 sequence (Q5SYB0 52-145, limits assumed, looked up): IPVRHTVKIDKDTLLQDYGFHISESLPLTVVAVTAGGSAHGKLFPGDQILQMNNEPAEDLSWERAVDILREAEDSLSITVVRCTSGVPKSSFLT
# Assay: holdup assay
# Design: key: below the threshold = too weak to quantify, mostly under pKd 3.1 to 4
# Conditions: plain residues with an end cap or a label only (N-terminal biotin on a linker: ado-ado)
row,Binder,pKd
1,B1,below the threshold
2,B2,below the threshold
3,B3,below the threshold

# Target: T7, APBA3_1, O96018
# T7 sequence (O96018 389-490, limits assumed, looked up): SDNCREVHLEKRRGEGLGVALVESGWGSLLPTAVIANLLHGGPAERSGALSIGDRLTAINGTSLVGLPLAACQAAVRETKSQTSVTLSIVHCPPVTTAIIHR
# Assay: holdup assay
# Design: key: below the threshold = too weak to quantify, mostly under pKd 3.1 to 4
# Conditions: plain residues with an end cap or a label only (N-terminal biotin on a linker: ado-ado)
row,Binder,pKd
1,B1,below the threshold
2,B2,below the threshold
3,B3,below the threshold

# Target: AHNAK1, Q09666
# Assay: holdup assay
# Design: key: below the threshold = too weak to quantify, mostly under pKd 3.1 to 4
# Conditions: plain residues with an end cap or a label only (N-terminal biotin on a linker: ado-ado)
# AHNAK1, Q09666, sequence (Q09666 4-100): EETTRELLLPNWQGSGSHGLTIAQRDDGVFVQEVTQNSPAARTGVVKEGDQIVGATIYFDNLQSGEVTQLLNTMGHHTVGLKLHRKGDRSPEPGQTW
row,Binder,pKd
1,B1,below the threshold
2,B2,below the threshold
3,B3,below the threshold

# Target: PARD3_3, Q8TEW0
# Assay: holdup assay
# Design: key: below the threshold = too weak to quantify, mostly under pKd 3.1 to 4
# Conditions: plain residues with an end cap or a label only (N-terminal biotin on a linker: ado-ado)
# PARD3_3, Q8TEW0, sequence (Q8TEW0 582-685): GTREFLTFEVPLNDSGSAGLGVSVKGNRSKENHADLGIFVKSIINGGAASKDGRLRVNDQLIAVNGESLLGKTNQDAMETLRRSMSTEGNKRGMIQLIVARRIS
row,Binder,pKd
1,B1,below the threshold
2,B2,below the threshold
3,B3,below the threshold

# Target: MAGI2_3, Q86UL8
# Assay: holdup assay
# Design: key: below the threshold = too weak to quantify, mostly under pKd 3.1 to 4
# Conditions: plain residues with an end cap or a label only (N-terminal biotin on a linker: ado-ado)
# MAGI2_3, Q86UL8, sequence (Q86UL8 600-682): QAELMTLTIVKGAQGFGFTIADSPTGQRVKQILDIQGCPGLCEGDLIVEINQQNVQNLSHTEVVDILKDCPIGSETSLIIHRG
row,Binder,pKd
1,B1,below the threshold
2,B2,below the threshold
3,B3,below the threshold

# Target: PTPN3, P26045
# Assay: holdup assay
# Design: key: below the threshold = too weak to quantify, mostly under pKd 3.1 to 4
# Conditions: plain residues with an end cap or a label only (N-terminal biotin on a linker: ado-ado)
# PTPN3, P26045, sequence (P26045 505-587): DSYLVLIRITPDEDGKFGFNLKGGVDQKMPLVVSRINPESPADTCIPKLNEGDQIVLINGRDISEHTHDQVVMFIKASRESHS
row,Binder,pKd
1,B1,4.55
2,B2,3.71
3,B3,below the threshold

# Target: DLG2_2, Q15700
# Assay: holdup assay
# Design: key: below the threshold = too weak to quantify, mostly under pKd 3.1 to 4
# Conditions: plain residues with an end cap or a label only (N-terminal biotin on a linker: ado-ado)
# DLG2_2, Q15700, sequence (Q15700 189-283): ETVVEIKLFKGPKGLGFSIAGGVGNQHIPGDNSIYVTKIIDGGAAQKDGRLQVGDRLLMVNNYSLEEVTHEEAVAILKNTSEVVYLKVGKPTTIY
row,Binder,pKd
1,B1,below the threshold
2,B2,below the threshold
3,B3,below the threshold

# Target: T8, SHANK1, Q9Y566
# T8 sequence (Q9Y566 658-767, limits assumed, looked up): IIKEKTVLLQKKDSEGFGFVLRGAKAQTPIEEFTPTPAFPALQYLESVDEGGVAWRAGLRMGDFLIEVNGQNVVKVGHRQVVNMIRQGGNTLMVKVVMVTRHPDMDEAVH
# Assay: holdup assay
# Design: key: below the threshold = too weak to quantify, mostly under pKd 3.1 to 4
# Conditions: plain residues with an end cap or a label only (N-terminal biotin on a linker: ado-ado)
row,Binder,pKd
1,B1,below the threshold
2,B2,3.89
3,B3,below the threshold

# Target: T9, TJP3_3, O95049
# T9 sequence (O95049 375-456, limits assumed, looked up): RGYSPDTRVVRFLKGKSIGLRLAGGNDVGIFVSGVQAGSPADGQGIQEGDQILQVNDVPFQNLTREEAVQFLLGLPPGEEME
# Assay: holdup assay
# Design: key: below the threshold = too weak to quantify, mostly under pKd 3.1 to 4
# Conditions: plain residues with an end cap or a label only (N-terminal biotin on a linker: ado-ado)
row,Binder,pKd
1,B1,below the threshold
2,B2,below the threshold
3,B3,below the threshold

# Target: MAGI2_4, Q86UL8
# Assay: holdup assay
# Design: key: below the threshold = too weak to quantify, mostly under pKd 3.1 to 4
# Conditions: plain residues with an end cap or a label only (N-terminal biotin on a linker: ado-ado)
# MAGI2_4, Q86UL8, sequence (Q86UL8 772-865): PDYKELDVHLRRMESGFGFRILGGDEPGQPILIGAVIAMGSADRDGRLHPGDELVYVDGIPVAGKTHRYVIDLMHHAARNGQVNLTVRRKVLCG
row,Binder,pKd
1,B1,3.54
2,B2,below the threshold
3,B3,below the threshold

# Target: FRMPD2_1, Q68DX3
# Assay: holdup assay
# Design: key: below the threshold = too weak to quantify, mostly under pKd 3.1 to 4
# Conditions: plain residues with an end cap or a label only (N-terminal biotin on a linker: ado-ado)
# FRMPD2_1, Q68DX3, sequence (Q68DX3 770-861): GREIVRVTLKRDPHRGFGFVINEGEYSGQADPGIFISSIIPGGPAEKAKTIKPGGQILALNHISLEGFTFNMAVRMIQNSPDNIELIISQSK
row,Binder,pKd
1,B1,below the threshold
2,B2,below the threshold
3,B3,below the threshold

# Target: Inadl_8, Q8NI35
# Assay: holdup assay
# Design: key: below the threshold = too weak to quantify, mostly under pKd 3.1 to 4
# Conditions: plain residues with an end cap or a label only (N-terminal biotin on a linker: ado-ado)
# Inadl_8, Q8NI35, sequence (Q8NI35 1425-1530): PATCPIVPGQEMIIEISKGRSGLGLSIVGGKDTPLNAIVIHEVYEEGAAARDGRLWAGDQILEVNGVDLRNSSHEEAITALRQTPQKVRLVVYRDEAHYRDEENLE
row,Binder,pKd
1,B1,below the threshold
2,B2,4.06
3,B3,below the threshold

# Target: PDLIM1, O00151
# Assay: holdup assay
# Design: key: below the threshold = too weak to quantify, mostly under pKd 3.1 to 4
# Conditions: plain residues with an end cap or a label only (N-terminal biotin on a linker: ado-ado)
# PDLIM1, O00151, sequence (O00151 1-87): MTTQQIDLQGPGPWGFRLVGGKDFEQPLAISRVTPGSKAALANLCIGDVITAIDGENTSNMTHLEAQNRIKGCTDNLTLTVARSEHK
row,Binder,pKd
1,B1,below the threshold
2,B2,below the threshold
3,B3,below the threshold

# Target: Inadl_2, Q8NI35
# Assay: holdup assay
# Design: key: below the threshold = too weak to quantify, mostly under pKd 3.1 to 4
# Conditions: plain residues with an end cap or a label only (N-terminal biotin on a linker: ado-ado)
# Inadl_2, Q8NI35, sequence (Q8NI35 238-335): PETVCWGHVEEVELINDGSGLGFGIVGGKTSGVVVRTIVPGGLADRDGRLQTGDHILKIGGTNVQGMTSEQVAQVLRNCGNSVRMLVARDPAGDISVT
row,Binder,pKd
1,B1,below the threshold
2,B2,below the threshold
3,B3,below the threshold

# Target: T10, APBA1_1, Q02410
# T10 sequence (Q02410 651-752, limits assumed, looked up): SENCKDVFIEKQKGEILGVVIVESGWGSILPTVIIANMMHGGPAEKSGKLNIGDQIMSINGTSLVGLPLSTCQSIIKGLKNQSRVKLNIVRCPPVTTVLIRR
# Assay: holdup assay
# Design: key: below the threshold = too weak to quantify, mostly under pKd 3.1 to 4
# Conditions: plain residues with an end cap or a label only (N-terminal biotin on a linker: ado-ado)
row,Binder,pKd
1,B1,below the threshold
2,B2,below the threshold
3,B3,below the threshold

# Target: T11, LRRC7, Q96NW7
# T11 sequence (Q96NW7 1440-1537, limits assumed, looked up): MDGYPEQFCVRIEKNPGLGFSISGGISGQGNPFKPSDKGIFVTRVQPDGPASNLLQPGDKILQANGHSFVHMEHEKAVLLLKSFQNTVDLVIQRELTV
# Assay: holdup assay
# Design: key: below the threshold = too weak to quantify, mostly under pKd 3.1 to 4
# Conditions: plain residues with an end cap or a label only (N-terminal biotin on a linker: ado-ado)
row,Binder,pKd
1,B1,below the threshold
2,B2,below the threshold
3,B3,below the threshold
